Earlier results in paper PMC3521240.

Target: PTX3 (Homo sapiens) (UniProt P26022)
Sequence (P26022 18-381): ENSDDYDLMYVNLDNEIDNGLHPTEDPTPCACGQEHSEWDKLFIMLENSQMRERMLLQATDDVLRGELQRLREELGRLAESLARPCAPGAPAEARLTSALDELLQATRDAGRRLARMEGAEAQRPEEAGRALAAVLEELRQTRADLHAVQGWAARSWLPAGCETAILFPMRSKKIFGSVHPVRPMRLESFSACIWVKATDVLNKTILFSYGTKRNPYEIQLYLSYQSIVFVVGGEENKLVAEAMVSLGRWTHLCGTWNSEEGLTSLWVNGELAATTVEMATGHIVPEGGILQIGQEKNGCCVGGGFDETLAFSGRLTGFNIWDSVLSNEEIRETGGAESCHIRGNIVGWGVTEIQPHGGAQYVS

Chain of AZU1 (P20160 27-248): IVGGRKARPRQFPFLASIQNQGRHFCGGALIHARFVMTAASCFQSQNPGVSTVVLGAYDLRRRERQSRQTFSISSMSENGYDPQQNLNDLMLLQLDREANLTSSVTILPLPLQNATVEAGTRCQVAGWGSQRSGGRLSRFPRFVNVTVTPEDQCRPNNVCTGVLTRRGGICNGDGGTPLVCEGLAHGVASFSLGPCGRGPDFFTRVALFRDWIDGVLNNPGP

- Kd: 22 nM
Substance: AZU1 (from UniProt P20160)
